Source: the supplement of paper PMC10567573

B1: KCNG1 (parent)
chain: AVNLSVSTLPSLREEEEQVRAHAP
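Further: lentivirally expressed fusions sorted by FACS into six bins by GFP to DsRed ratio, PSI derived from sequencing read proportions per bin multiplied by bin number.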

Variants of: B1
Assay: protein stability index of a GFP-peptide fusion (GPS, HEK-293T) (PSI 1-6); higher = more stable
Conditions: c terminus: a fixed tail appended
For AVNLSVLTLPSLREEEEQVRAHAP [S7L], the protein stability index was 3.62.
For AVNLSVVTLPSLREEEEQVRAHAP [S7V], the protein stability index was 4.71.
Variant AVNLSVFTLPSLREEEEQVRAHAP [S7F] has a protein stability index of 4.11.
AVNLSVYTLPSLREEEEQVRAHAP [S7Y] gave a protein stability index of 4.19.
AVNLSVHTLPSLREEEEQVRAHAP [S7H] gave a protein stability index of 5.03.
Work on AVNLSVCTLPSLREEEEQVRAHAP [S7C] yielded a protein stability index of 4.41.
Work on AVNLSVETLPSLREEEEQVRAHAP [S7E] yielded a protein stability index of 4.47.
For AVNLSVITLPSLREEEEQVRAHAP [S7I], the protein stability index was 3.67.
With AVNLSVMTLPSLREEEEQVRAHAP [S7M] the protein stability index was 4.53.
AVNLSVRTLPSLREEEEQVRAHAP [S7R] showed a protein stability index of 4.93.
In the case of AVNLSVATLPSLREEEEQVRAHAP [S7A], the protein stability index is reported as 4.75.
AVNLSVPTLPSLREEEEQVRAHAP [S7P] showed a protein stability index of 5.09.
Work on AVNLSVDTLPSLREEEEQVRAHAP [S7D] yielded a protein stability index of 4.8.
Variant AVNLSVQTLPSLREEEEQVRAHAP [S7Q] has a protein stability index of 4.91.
For AVNLSVTTLPSLREEEEQVRAHAP [S7T], the protein stability index was 4.95.
With AVNLSVNTLPSLREEEEQVRAHAP [S7N] the protein stability index was 5.02.
Work on AVNLSVWTLPSLREEEEQVRAHAP [S7W] yielded a protein stability index of 3.68.
AVNLSVGTLPSLREEEEQVRAHAP [S7G] showed a protein stability index of 5.18.
AVNLSVKTLPSLREEEEQVRAHAP [S7K] showed a protein stability index of 4.94.
Work on AVNLSPSTLPSLREEEEQVRAHAP [V6P] yielded a protein stability index of 5.45.
AVNLSWSTLPSLREEEEQVRAHAP [V6W] showed a protein stability index of 4.53.
In the case of AVNLSSSTLPSLREEEEQVRAHAP [V6S], the protein stability index is reported as 5.18.
Work on AVNLSYSTLPSLREEEEQVRAHAP [V6Y] yielded a protein stability index of 4.69.
In the case of AVNLSTSTLPSLREEEEQVRAHAP [V6T], the protein stability index is reported as 5.08.
In the case of AVNLSQSTLPSLREEEEQVRAHAP [V6Q], the protein stability index is reported as 5.24.
For AVNLSRSTLPSLREEEEQVRAHAP [V6R], the protein stability index was 5.02.
AVNLSNSTLPSLREEEEQVRAHAP [V6N] gave a protein stability index of 5.18.
In the case of AVNLSVSTLLSLREEEEQVRAHAP [P10L], the protein stability index is reported as 4.06.
AVNLSVSTLWSLREEEEQVRAHAP [P10W] gave a protein stability index of 4.05.
In the case of AVNLSVSTLISLREEEEQVRAHAP [P10I], the protein stability index is reported as 3.67.
For AVNLSVSTLKSLREEEEQVRAHAP [P10K], the protein stability index was 4.74.
AVNLSVSTLVSLREEEEQVRAHAP [P10V] gave a protein stability index of 4.61.
Work on AVNLSVSTLASLREEEEQVRAHAP [P10A] yielded a protein stability index of 4.59.
Work on AVNLSVSTLFSLREEEEQVRAHAP [P10F] yielded a protein stability index of 3.5.
AVNLSVSTLTSLREEEEQVRAHAP [P10T] gave a protein stability index of 4.49.
With AVNLSVSTLYSLREEEEQVRAHAP [P10Y] the protein stability index was 4.03.
With AVNLSVSTLMSLREEEEQVRAHAP [P10M] the protein stability index was 4.28.
Variant AVNLSVSTLESLREEEEQVRAHAP [P10E] has a protein stability index of 5.04.
Work on AVNLSVSTLDSLREEEEQVRAHAP [P10D] yielded a protein stability index of 5.06.
In the case of AVNLSVSTLGSLREEEEQVRAHAP [P10G], the protein stability index is reported as 4.71.
Variant AVNLSVSTLHSLREEEEQVRAHAP [P10H] has a protein stability index of 4.63.
AVNLSVSTLCSLREEEEQVRAHAP [P10C] gave a protein stability index of 4.35.
AVNLSVSTLQSLREEEEQVRAHAP [P10Q] gave a protein stability index of 5.05.
Work on AVNLSVSTLSSLREEEEQVRAHAP [P10S] yielded a protein stability index of 4.62.
AVNLSVSTLNSLREEEEQVRAHAP [P10N] showed a protein stability index of 4.7.
For AVNLSVSTLRSLREEEEQVRAHAP [P10R], the protein stability index was 4.29.
For AVNLSVSTLPDLREEEEQVRAHAP [S11D], the protein stability index was 5.02.
Variant AVNLSVSTLPHLREEEEQVRAHAP [S11H] has a protein stability index of 5.07.
With AVNLSVSTLPELREEEEQVRAHAP [S11E] the protein stability index was 5.14.
In the case of AVNLSVSTLPLLREEEEQVRAHAP [S11L], the protein stability index is reported as 4.75.
Work on AVNLSVSTLPCLREEEEQVRAHAP [S11C] yielded a protein stability index of 4.3.
AVNLSVSTLPGLREEEEQVRAHAP [S11G] showed a protein stability index of 3.95.
Work on AVNLSVSTLPALREEEEQVRAHAP [S11A] yielded a protein stability index of 5.43.
AVNLSVSTLPFLREEEEQVRAHAP [S11F] showed a protein stability index of 4.45.
AVNLSVSTLPKLREEEEQVRAHAP [S11K] gave a protein stability index of 5.13.
With AVNLSVSTLPILREEEEQVRAHAP [S11I] the protein stability index was 4.79.
Variant AVNLSVSTDPSLREEEEQVRAHAP [L9D] has a protein stability index of 5.49.
In the case of AVNLSVSTPPSLREEEEQVRAHAP [L9P], the protein stability index is reported as 5.26.
For AVNLSVSTVPSLREEEEQVRAHAP [L9V], the protein stability index was 4.73.
For AVNLSVSTHPSLREEEEQVRAHAP [L9H], the protein stability index was 4.81.
Variant AVNLSVSTIPSLREEEEQVRAHAP [L9I] has a protein stability index of 4.14.
AVNLSVSTRPSLREEEEQVRAHAP [L9R] showed a protein stability index of 5.28.
Variant AVNLSVSTAPSLREEEEQVRAHAP [L9A] has a protein stability index of 5.36.
For AVNLSVSTSPSLREEEEQVRAHAP [L9S], the protein stability index was 5.09.
Variant AVNLSVSTQPSLREEEEQVRAHAP [L9Q] has a protein stability index of 4.88.
Work on AVNLSVSTEPSLREEEEQVRAHAP [L9E] yielded a protein stability index of 4.67.
AVNLSVSTKPSLREEEEQVRAHAP [L9K] showed a protein stability index of 5.19.
AVNLSVSTWPSLREEEEQVRAHAP [L9W] gave a protein stability index of 3.81.
AVNLSVSTNPSLREEEEQVRAHAP [L9N] gave a protein stability index of 5.42.
In the case of AVNLSVSTTPSLREEEEQVRAHAP [L9T], the protein stability index is reported as 5.08.
With AVNLSVSTCPSLREEEEQVRAHAP [L9C] the protein stability index was 4.66.
AVNLSVSTMPSLREEEEQVRAHAP [L9M] gave a protein stability index of 4.63.
Work on AVNLSVSTYPSLREEEEQVRAHAP [L9Y] yielded a protein stability index of 4.47.
With AVNLSVSTFPSLREEEEQVRAHAP [L9F] the protein stability index was 5.08.
For AVNLSVSTGPSLREEEEQVRAHAP [L9G], the protein stability index was 4.83.
Work on AVNLSVSWLPSLREEEEQVRAHAP [T8W] yielded a protein stability index of 3.11.
With AVNLSVSILPSLREEEEQVRAHAP [T8I] the protein stability index was 4.12.
For AVNLSVSALPSLREEEEQVRAHAP [T8A], the protein stability index was 5.28.
AVNLSVSMLPSLREEEEQVRAHAP [T8M] gave a protein stability index of 4.53.
With AVNLSVSSLPSLREEEEQVRAHAP [T8S] the protein stability index was 4.82.
In the case of AVNLSVSHLPSLREEEEQVRAHAP [T8H], the protein stability index is reported as 4.83.
AVNLSVSGLPSLREEEEQVRAHAP [T8G] gave a protein stability index of 5.15.
AVNLSVSELPSLREEEEQVRAHAP [T8E] gave a protein stability index of 4.95.
Variant AVNLSVSNLPSLREEEEQVRAHAP [T8N] has a protein stability index of 5.14.
Variant AVNLSVSKLPSLREEEEQVRAHAP [T8K] has a protein stability index of 4.61.
With AVNLSVSFLPSLREEEEQVRAHAP [T8F] the protein stability index was 3.42.
Work on AVNLSVSLLPSLREEEEQVRAHAP [T8L] yielded a protein stability index of 4.55.
In the case of AVNLSVSQLPSLREEEEQVRAHAP [T8Q], the protein stability index is reported as 5.07.
Variant AVNLSVSRLPSLREEEEQVRAHAP [T8R] has a protein stability index of 4.94.
For AVNLSVSCLPSLREEEEQVRAHAP [T8C], the protein stability index was 4.67.
Variant AVNLSVSYLPSLREEEEQVRAHAP [T8Y] has a protein stability index of 4.19.
AVNLSVSDLPSLREEEEQVRAHAP [T8D] gave a protein stability index of 5.36.
For AVNLSVSVLPSLREEEEQVRAHAP [T8V], the protein stability index was 4.45.
Variant AVNLSVSPLPSLREEEEQVRAHAP [T8P] has a protein stability index of 5.14.
